± gives the uncertainty stated by the source.
B1: library; numbered along this chain (parent)
chain: MEVVDPQQLGMFTEGELMSVGMDTFIHRIDSTEVIYQPRRKRAKLIGKYLMGDLLGEGSYGKVKEVLDSETLCRRAVKILKKKKLRRIPNGEANVKKEIQLLRRLRHKNVIQLVDVLYNEEKQKMYMVMEYCVCGMQEMLDSVPEKRFPVCQAHGYFCQLIDGLEYLHSQGIVHKDIKPGNLLLTTGGTLKISDLGVAEALHPFAADDTCRTSQGSPAFQPPEIANGLDTFSGFKVDIWSAGVTLYNITTGLYPFEGDNIYKLFENIGKGSYAIPGDCGPPLSDLLKGMLEYEPAKRFSIRQIRQHSWFRKKHPPAEAPVPIPPSPDTKDRWRSMTVVPYLEDLHGADEDEDLFDIEDDIIYTQDFTVPGQVPEEEASHNGQRRGLPKAVCMNGTEAAQLSTKSRAEGRAPNPARKACSASSKIRRLSACKQQ

Variants of: B1
Experiment: STK11 functional score (HeLa growth suppression), rescaled enrichment; synonymous median = 1, nonsense median = 0 (normalised score)
Settings: with HeLa; variant type: missense
Procedure, shortened: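 The functional score takes the post/pre-selection log ratio, corrects it to wild type, rescales it to synonymous and nonsense medians, and merges it over codons and replicate transfections, with error from bootstrapping. Counts came from tiled gDNA amplicons sequenced on NextSeq (~2 million reads per tile). The libraries were POPCode codon-randomised, codon-optimised STK11 integrated by Bxb1 at an AAVS1 landing pad in HeLa, three regions with three transfections each.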
Variant MEVVDPQQLGMFTEGELMSVGMDTFIHRIDSTEVIYQPRRKRAKLIGKYLMGDLLGEGSYGKVKEVLDSETLCRRAVKILKKKKLRRIPNGEANVKKEIQLLRRLRHKNVIQLVDVLYNEEKQKMYMVMEYCVCGMQEMLDSVPEKRFPVCQAHGYFCQLIDGLEYLHSQGIVHKDIKPGNLLLTTGGTLKISDLGVAEALHPFAADDTCRTSQGSPAFQPPEIANGLDTFSGFKVDIWSAGVTLYNITTGLYPFEGDNIYKLFENIGKGSYAIPGDCGPPLSDLLKGMLEYEPAKRFSIRQIRQHSWFRKKHPPAEAPVPIPPSPDTKDRWRSMTVVPYLEDLHGADEDEDLFDIEDDIIYTQDFTVPGQYPEEEASHNGQRRGLPKAVCMNGTEAAQLSTKSRAEGRAPNPARKACSASSKIRRLSACKQQ [V372Y] has an STK11 functional score of 1.48 ± 0.33. Variant MEVVDPQQLGMFTEGELMSVGMDTFIHRIDSTEVIYQPRRKRAKLIGKYLMGDLLGEGSYGKVKEVLDSETLCRRAVKILKKKKLRRIPNGEANVKKEIQLLRRLRHKNVIQLVDVLYNEEKQKMYMVMEYCVCGMQEMLDSVPEKRFPVCQAHGYFCQLIDGLEYLHSQGIVHKDIKPGNLLLTTGGTLKISDLGVAEALHPFAADDTCRTSQGSPAFQPPEIANGLDTFSGFKVDIWSAGVTLYNITTGLYPFEGDNIYKLFENIGKGSYAIPGDCGPPLSDLLKGMLEYEPAKRFSIRQIRQHSWFRKKHPPAEAPVPIPPSPDTKDRWRSMTVVPYLEDLHGADEDEDLFDIEDDIIYTQDFTVPGQWPEEEASHNGQRRGLPKAVCMNGTEAAQLSTKSRAEGRAPNPARKACSASSKIRRLSACKQQ [V372W] has an STK11 functional score of 1.09 ± 0.29. For MEVVDPQQLGMFTEGELMSVGMDTFIHRIDSTEVIYQPRRKRAKLIGKYLMGDLLGEGSYGKVKEVLDSETLCRRAVKILKKKKLRRIPNGEANVKKEIQLLRRLRHKNVIQLVDVLYNEEKQKMYMVMEYCVCGMQEMLDSVPEKRFPVCQAHGYFCQLIDGLEYLHSQGIVHKDIKPGNLLLTTGGTLKISDLGVAEALHPFAADDTCRTSQGSPAFQPPEIANGLDTFSGFKVDIWSAGVTLYNITTGLYPFEGDNIYKLFENIGKGSYAIPGDCGPPLSDLLKGMLEYEPAKRFSIRQIRQHSWFRKKHPPAEAPVPIPPSPDTKDRWRSMTVVPYLEDLHGADEDEDLFDIEDDIIYTQDFTVPGQTPEEEASHNGQRRGLPKAVCMNGTEAAQLSTKSRAEGRAPNPARKACSASSKIRRLSACKQQ [V372T], the STK11 functional score was 1.5 ± 0.21. Variant MEVVDPQQLGMFTEGELMSVGMDTFIHRIDSTEVIYQPRRKRAKLIGKYLMGDLLGEGSYGKVKEVLDSETLCRRAVKILKKKKLRRIPNGEANVKKEIQLLRRLRHKNVIQLVDVLYNEEKQKMYMVMEYCVCGMQEMLDSVPEKRFPVCQAHGYFCQLIDGLEYLHSQGIVHKDIKPGNLLLTTGGTLKISDLGVAEALHPFAADDTCRTSQGSPAFQPPEIANGLDTFSGFKVDIWSAGVTLYNITTGLYPFEGDNIYKLFENIGKGSYAIPGDCGPPLSDLLKGMLEYEPAKRFSIRQIRQHSWFRKKHPPAEAPVPIPPSPDTKDRWRSMTVVPYLEDLHGADEDEDLFDIEDDIIYTQDFTVPGQSPEEEASHNGQRRGLPKAVCMNGTEAAQLSTKSRAEGRAPNPARKACSASSKIRRLSACKQQ [V372S] has an STK11 functional score of 1.44 ± 0.3. MEVVDPQQLGMFTEGELMSVGMDTFIHRIDSTEVIYQPRRKRAKLIGKYLMGDLLGEGSYGKVKEVLDSETLCRRAVKILKKKKLRRIPNGEANVKKEIQLLRRLRHKNVIQLVDVLYNEEKQKMYMVMEYCVCGMQEMLDSVPEKRFPVCQAHGYFCQLIDGLEYLHSQGIVHKDIKPGNLLLTTGGTLKISDLGVAEALHPFAADDTCRTSQGSPAFQPPEIANGLDTFSGFKVDIWSAGVTLYNITTGLYPFEGDNIYKLFENIGKGSYAIPGDCGPPLSDLLKGMLEYEPAKRFSIRQIRQHSWFRKKHPPAEAPVPIPPSPDTKDRWRSMTVVPYLEDLHGADEDEDLFDIEDDIIYTQDFTVPGQRPEEEASHNGQRRGLPKAVCMNGTEAAQLSTKSRAEGRAPNPARKACSASSKIRRLSACKQQ [V372R] showed an STK11 functional score of 1.42 ± 0.38. MEVVDPQQLGMFTEGELMSVGMDTFIHRIDSTEVIYQPRRKRAKLIGKYLMGDLLGEGSYGKVKEVLDSETLCRRAVKILKKKKLRRIPNGEANVKKEIQLLRRLRHKNVIQLVDVLYNEEKQKMYMVMEYCVCGMQEMLDSVPEKRFPVCQAHGYFCQLIDGLEYLHSQGIVHKDIKPGNLLLTTGGTLKISDLGVAEALHPFAADDTCRTSQGSPAFQPPEIANGLDTFSGFKVDIWSAGVTLYNITTGLYPFEGDNIYKLFENIGKGSYAIPGDCGPPLSDLLKGMLEYEPAKRFSIRQIRQHSWFRKKHPPAEAPVPIPPSPDTKDRWRSMTVVPYLEDLHGADEDEDLFDIEDDIIYTQDFTVPGQQPEEEASHNGQRRGLPKAVCMNGTEAAQLSTKSRAEGRAPNPARKACSASSKIRRLSACKQQ [V372Q] showed an STK11 functional score of 1.49 ± 0.16. In the case of MEVVDPQQLGMFTEGELMSVGMDTFIHRIDSTEVIYQPRRKRAKLIGKYLMGDLLGEGSYGKVKEVLDSETLCRRAVKILKKKKLRRIPNGEANVKKEIQLLRRLRHKNVIQLVDVLYNEEKQKMYMVMEYCVCGMQEMLDSVPEKRFPVCQAHGYFCQLIDGLEYLHSQGIVHKDIKPGNLLLTTGGTLKISDLGVAEALHPFAADDTCRTSQGSPAFQPPEIANGLDTFSGFKVDIWSAGVTLYNITTGLYPFEGDNIYKLFENIGKGSYAIPGDCGPPLSDLLKGMLEYEPAKRFSIRQIRQHSWFRKKHPPAEAPVPIPPSPDTKDRWRSMTVVPYLEDLHGADEDEDLFDIEDDIIYTQDFTVPGQVIEEEASHNGQRRGLPKAVCMNGTEAAQLSTKSRAEGRAPNPARKACSASSKIRRLSACKQQ [P373I], the STK11 functional score is reported as 1.31 ± 0.18. In the case of MEVVDPQQLGMFTEGELMSVGMDTFIHRIDSTEVIYQPRRKRAKLIGKYLMGDLLGEGSYGKVKEVLDSETLCRRAVKILKKKKLRRIPNGEANVKKEIQLLRRLRHKNVIQLVDVLYNEEKQKMYMVMEYCVCGMQEMLDSVPEKRFPVCQAHGYFCQLIDGLEYLHSQGIVHKDIKPGNLLLTTGGTLKISDLGVAEALHPFAADDTCRTSQGSPAFQPPEIANGLDTFSGFKVDIWSAGVTLYNITTGLYPFEGDNIYKLFENIGKGSYAIPGDCGPPLSDLLKGMLEYEPAKRFSIRQIRQHSWFRKKHPPAEAPVPIPPSPDTKDRWRSMTVVPYLEDLHGADEDEDLFDIEDDIIYTQDFTVPGQVHEEEASHNGQRRGLPKAVCMNGTEAAQLSTKSRAEGRAPNPARKACSASSKIRRLSACKQQ [P373H], the STK11 functional score is reported as 1.49 ± 0.37. For MEVVDPQQLGMFTEGELMSVGMDTFIHRIDSTEVIYQPRRKRAKLIGKYLMGDLLGEGSYGKVKEVLDSETLCRRAVKILKKKKLRRIPNGEANVKKEIQLLRRLRHKNVIQLVDVLYNEEKQKMYMVMEYCVCGMQEMLDSVPEKRFPVCQAHGYFCQLIDGLEYLHSQGIVHKDIKPGNLLLTTGGTLKISDLGVAEALHPFAADDTCRTSQGSPAFQPPEIANGLDTFSGFKVDIWSAGVTLYNITTGLYPFEGDNIYKLFENIGKGSYAIPGDCGPPLSDLLKGMLEYEPAKRFSIRQIRQHSWFRKKHPPAEAPVPIPPSPDTKDRWRSMTVVPYLEDLHGADEDEDLFDIEDDIIYTQDFTVPGQVCEEEASHNGQRRGLPKAVCMNGTEAAQLSTKSRAEGRAPNPARKACSASSKIRRLSACKQQ [P373C], the STK11 functional score was 1.32 ± 0.48. In the case of MEVVDPQQLGMFTEGELMSVGMDTFIHRIDSTEVIYQPRRKRAKLIGKYLMGDLLGEGSYGKVKEVLDSETLCRRAVKILKKKKLRRIPNGEANVKKEIQLLRRLRHKNVIQLVDVLYNEEKQKMYMVMEYCVCGMQEMLDSVPEKRFPVCQAHGYFCQLIDGLEYLHSQGIVHKDIKPGNLLLTTGGTLKISDLGVAEALHPFAADDTCRTSQGSPAFQPPEIANGLDTFSGFKVDIWSAGVTLYNITTGLYPFEGDNIYKLFENIGKGSYAIPGDCGPPLSDLLKGMLEYEPAKRFSIRQIRQHSWFRKKHPPAEAPVPIPPSPDTKDRWRSMTVVPYLEDLHGADEDEDLFDIEDDIIYTQDFTVPGQVAEEEASHNGQRRGLPKAVCMNGTEAAQLSTKSRAEGRAPNPARKACSASSKIRRLSACKQQ [P373A], the STK11 functional score is reported as 1.08 ± 0.17. MEVVDPQQLGMFTEGELMSVGMDTFIHRIDSTEVIYQPRRKRAKLIGKYLMGDLLGEGSYGKVKEVLDSETLCRRAVKILKKKKLRRIPNGEANVKKEIQLLRRLRHKNVIQLVDVLYNEEKQKMYMVMEYCVCGMQEMLDSVPEKRFPVCQAHGYFCQLIDGLEYLHSQGIVHKDIKPGNLLLTTGGTLKISDLGVAEALHPFAADDTCRTSQGSPAFQPPEIANGLDTFSGFKVDIWSAGVTLYNITTGLYPFEGDNIYKLFENIGKGSYAIPGDCGPPLSDLLKGMLEYEPAKRFSIRQIRQHSWFRKKHPPAEAPVPIPPSPDTKDRWRSMTVVPYLEDLHGADEDEDLFDIEDDIIYTQDFTVPGQVDEEEASHNGQRRGLPKAVCMNGTEAAQLSTKSRAEGRAPNPARKACSASSKIRRLSACKQQ [P373D] gave an STK11 functional score of 1.58 ± 0.32. Variant MEVVDPQQLGMFTEGELMSVGMDTFIHRIDSTEVIYQPRRKRAKLIGKYLMGDLLGEGSYGKVKEVLDSETLCRRAVKILKKKKLRRIPNGEANVKKEIQLLRRLRHKNVIQLVDVLYNEEKQKMYMVMEYCVCGMQEMLDSVPEKRFPVCQAHGYFCQLIDGLEYLHSQGIVHKDIKPGNLLLTTGGTLKISDLGVAEALHPFAADDTCRTSQGSPAFQPPEIANGLDTFSGFKVDIWSAGVTLYNITTGLYPFEGDNIYKLFENIGKGSYAIPGDCGPPLSDLLKGMLEYEPAKRFSIRQIRQHSWFRKKHPPAEAPVPIPPSPDTKDRWRSMTVVPYLEDLHGADEDEDLFDIEDDIIYTQDFTVPGQVFEEEASHNGQRRGLPKAVCMNGTEAAQLSTKSRAEGRAPNPARKACSASSKIRRLSACKQQ [P373F] has an STK11 functional score of 1.26 ± 0.47. MEVVDPQQLGMFTEGELMSVGMDTFIHRIDSTEVIYQPRRKRAKLIGKYLMGDLLGEGSYGKVKEVLDSETLCRRAVKILKKKKLRRIPNGEANVKKEIQLLRRLRHKNVIQLVDVLYNEEKQKMYMVMEYCVCGMQEMLDSVPEKRFPVCQAHGYFCQLIDGLEYLHSQGIVHKDIKPGNLLLTTGGTLKISDLGVAEALHPFAADDTCRTSQGSPAFQPPEIANGLDTFSGFKVDIWSAGVTLYNITTGLYPFEGDNIYKLFENIGKGSYAIPGDCGPPLSDLLKGMLEYEPAKRFSIRQIRQHSWFRKKHPPAEAPVPIPPSPDTKDRWRSMTVVPYLEDLHGADEDEDLFDIEDDIIYTQDFTVPGQVGEEEASHNGQRRGLPKAVCMNGTEAAQLSTKSRAEGRAPNPARKACSASSKIRRLSACKQQ [P373G] showed an STK11 functional score of 1.53 ± 0.25. MEVVDPQQLGMFTEGELMSVGMDTFIHRIDSTEVIYQPRRKRAKLIGKYLMGDLLGEGSYGKVKEVLDSETLCRRAVKILKKKKLRRIPNGEANVKKEIQLLRRLRHKNVIQLVDVLYNEEKQKMYMVMEYCVCGMQEMLDSVPEKRFPVCQAHGYFCQLIDGLEYLHSQGIVHKDIKPGNLLLTTGGTLKISDLGVAEALHPFAADDTCRTSQGSPAFQPPEIANGLDTFSGFKVDIWSAGVTLYNITTGLYPFEGDNIYKLFENIGKGSYAIPGDCGPPLSDLLKGMLEYEPAKRFSIRQIRQHSWFRKKHPPAEAPVPIPPSPDTKDRWRSMTVVPYLEDLHGADEDEDLFDIEDDIIYTQDFTVPGQVEEEEASHNGQRRGLPKAVCMNGTEAAQLSTKSRAEGRAPNPARKACSASSKIRRLSACKQQ [P373E] was tested, and the STK11 functional score was 1.51 ± 0.31.
